Results on 30 sequences are retold here after the nanobody polyreactivity screen of Harvey et al. (2022).

A short description of the series: yeast display, Sf9 membrane polyspecificity reagent, FACS + sequencing; frameworks hold sequencing errors. The essentials: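 Nanobodies from a synthetic yeast display library (Saccharomyces cerevisiae BJ5465), induced 36–48 hours with galactose, were stained 1 hour at 4 °C with 10% biotinylated, detergent-solubilized Sf9 membrane reagent, enriched on streptavidin microbeads, then FACS-sorted. Anti-HA (expression) and streptavidin (reagent binding) fluorescence set low and high (top ~1%) gates. Polyreactivity labels come from the gate of origin. Genes were colony-PCR amplified, MiSeq 2 × 250 sequenced and filtered by CDR length.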
As to “QVQLVESGGGLVQAGGSLRLSCAASGRTFARNAMGWYRQAPGKERELVAAITSIGTRTYYADSVKARFTISRDNAMNTVYLQMNSLKREDTAVYYCNKKRTADYDYWGQGTQVTVSS”, the “polyreactivity (PSR sort gate)” value is “low polyreactivity”.

Regarding “QVQLVESGGGLVQAGGSLRLSCAASGRTFARYAMGWYRPAPGKERELVAAISSSGGSTYYADSVKWRFTISRDNAKNTVYLQMNSLKPEDTAVYYCVTYRNWWYDFWGQGTQVTGSS”, the “polyreactivity (PSR sort gate)” value is on record as “high polyreactivity”.

Take “QVQLVESGGGLVQAGGSLRLSCAASGRTFARYVMGWYRQAPGKERELVAAINSGGTTYYADSVKGRFTISRDNAKNTVYLQMNSLKPEDTAVYYCNARRGHYAYDYWGQGTQVTLSS”: the “polyreactivity (PSR sort gate)” value is listed as “high polyreactivity”.

For “QVQLVESGGGLVQAGGSLRLSCAASGRTFASNAMGWYRQAPGKERELVAAITISGGRTYYADSVKGRFTISRDNAKNTVYLQMNSLKPEDTAVYYCAAAKHSWRPSYYWGGYWGQGTQVTVSS”, the “polyreactivity (PSR sort gate)” value was “low polyreactivity”.

As to “QVQLVESGGGLVQAGGSLRLSCAASGRTFASYARGWYRQAPGKERELVAVITRGVRTYYADSVKGRFTISRDNAKNTVYLQMNSLKPEDTAVYYCAKERYNANYDTSLYDYWGQGTQVTVSS”, the “polyreactivity (PSR sort gate)” value is on record as “low polyreactivity”.

Turning to “QVQLVESGGGLVQAGGSLRLSCAASGRTFATNTMGWSRQAPGKERELVAAITFSGGSTYYADSVKGRFTISRDNAKNTVYLQMNSLKPEDTAVYYCNVRSPYYSYRYRYGYWGQGTQVTVSS”, the “polyreactivity (PSR sort gate)” value is “high polyreactivity”.

Turning to “QVQLVESGGGLVQAGGSLRLSCAASGRTFATNTMGWYRQAPGKERELVAAITFSGGSTYYADSVKGRFTISRDNAKNTVYLQMNSLKREDTAVYYCNVRSPYYSYRYRYGYWGHGTQVTVSS”, the “polyreactivity (PSR sort gate)” value is listed as “high polyreactivity”.

With “QVQLVESGGGLVQAGGSLRLSCAASGRTFATYAMGWYRQEPGKERELVAAISTSGGSTYYADSVKGRFTISRDNAKNTVYLQMNSLKPEDTAVYYCAAVLSWRGYTCPVYAFDYWGQGTQVTVSS”, the “polyreactivity (PSR sort gate)” value is on record as “high polyreactivity”.

Regarding “QVQLVESGGGLVQAGGSLRLSCAASGRTFATYMGWYRQAPGKERELVAGITRGGNTNYADSVKGRFTISRDNAKNTVYLQMNSLKPEDTAVYYCAKLKYRSHYSWGQGTQVTVSS”, the “polyreactivity (PSR sort gate)” value is on record as “high polyreactivity”.

With “QVQLVESGGGLVQAGGSLRLSCAASGRTFAVYAMGWYRQAPGKERELVAAITFGGGRTYYADSVKGRFTISRDNAKITVYLQMNSLKPEDTAVYYCAADYYGTDYDYRGQGTQVTVSS”, the “polyreactivity (PSR sort gate)” value is “low polyreactivity”.

Take “QVQLVESGGGLVQAGGSLRLSCAASGRTFAWYAMAWYRQAPGKERELVATITSRGGSTYYADSVKGRFTISRDNAKNTVYLQMNSLKPEYTAVYYCAAQSFWRPHQYDYWGQGTQVTVSS”: the “polyreactivity (PSR sort gate)” value was “low polyreactivity”.

For the sequence “QVQLVESGGGLVQAGGSLRLSCAASGRTFAWYAMGWYRQAPGKERELVAAISNVGSTYYADSVKGRFTISRDNAKNTVYLQMNSLKPEDTAVYYCNADAVSTDGREYWGQGTQVTVSS”, the “polyreactivity (PSR sort gate)” value is “low polyreactivity”.

As for “QVQLVESGGGLVQAGGSLRLSCAASGRTFAYNAMGWYRQAPGKERELVAAISRSGGSTYYADSVKGRFTISRDNAKNTVYLQMNSLKPEDTAVYYCNKVTHSYLYFAAGDYWGLGTQVTVSS”, the “polyreactivity (PSR sort gate)” value is given as “high polyreactivity”.

Turning to “QVQLVESGGGLVQAGGSLRLSCAASGRTFAYNAMGWYRQAPGTERELVAAITGSGGRTYYADSVKGRFTLSRDNAKYTVYLQMNSLIPEDTAVYYCAVGLPSRYDYWGQGTQVTVSS”, the “polyreactivity (PSR sort gate)” value is on record as “low polyreactivity”.

Consider “QVQLVESGGGLVQAGGSLRLSCAASGRTFAYNTMGWYRQAPGKERELVAAISTSGVRTFYADSVKGRFTISRDNAKNTVYLQMNSLKPEETAVYSYDWGQGTQVTVSS”, for which the “polyreactivity (PSR sort gate)” value is listed as “low polyreactivity”.

As to “QVQLVESGGGLVQAGGSLRLSCAASGRTFAYYAMGWYRPAPGKERELVATITRSGGITSYADSVKGRFTISRDNAKNTVYLQMSSLKPADTAVYYCNTGYSNRLHDYWGQGTQVTVSS”, the “polyreactivity (PSR sort gate)” value was “high polyreactivity”.

Turning to “QVQLVESGGGLVQAGGSLRLSCAASGRTFAYYAMGWYRQAPGKERELVAAISTNGGTYYADSVKGRFTISRDNAKNTVYFQLNSLKPEDTAVYSCAAYTSYDVDYWGQGTQVTVSS”, the “polyreactivity (PSR sort gate)” value was “low polyreactivity”.

As to “QVQLVESGGGLVQAGGSLRLSCAASGRTFDDYAMGGYSQAPGKERELVAAISWSGSSTYYADSVKGRFTISRDNAKNTVYLQMNSLKPEDTAVYYCAADSIRTLLTGNTVYIWYGYWGQGNQVTVSS”, the “polyreactivity (PSR sort gate)” value is “low polyreactivity”.

Consider “QVQLVESGGGLVQAGGSLRLSCAASGRTFDFYAMGWYRQAPGKERELDAAITFSTGSTTYADSVKGRFTISRDNAKNTVYLQMNSLKPEDTAVYYCNAYLYRKFGYRAYDYWGQGTQVTVSS”, for which the “polyreactivity (PSR sort gate)” value was “low polyreactivity”.

Regarding “QVQLVESGGGLVQAGGSLRLSCAASGRTFDGYAMGWYRQAPGKERELVAAISGSGGRTYYADSVKGRFTISRDNAKNTVYLQMNSLKPEVTAVYYCRGYYKYYPDEYDYWGQGTQVTVSS”, the “polyreactivity (PSR sort gate)” value is reported as “high polyreactivity”.

On to “QVQLVESGGGLVQAGGSLRLSCAASGRTFDGYDMGSYRQAPGKERELVAAINVVGGSTYYADSVKGRFTISRDNAKNTVYLLMNSLKPEDTEVYYCAARRSYLTNFRRYYKMDYWGQGTQVTVAS”, for which the “polyreactivity (PSR sort gate)” value is “low polyreactivity”.

Regarding “QVQLVESGGGLVQAGGSLRLSCAASGRTFDLNAMGWYRQAPGKERELVAGISSSGGRTYYADSVKGRFTISRDNAKNTVYLQMNSLKPEDTAVYYCAKVYPSYVLRKYDYWGQGTQVTVSS”, the “polyreactivity (PSR sort gate)” value is “high polyreactivity”.

With “QVQLVESGGGLVQAGGSLRLSCAASGRTFDPYAMGWYRQAPGKERELVAAITSGDDTYYADSVKGRFTISRDTAKNTVYLQMNSLKPEETAVYFCAAASFTPDYYSHDYWGQGTQVTVSS”, the “polyreactivity (PSR sort gate)” value was “low polyreactivity”.

As to “QVQLVESGGGLVQAGGSLRLSCAASGRTFDPYARGGYRQAPGKERELVASISRGGSTYADSVKGRFTISRDNAKNTVYLQMNSLKPEDTAVYYCNTSLYTEGDAMDYWGQGTQVTVSS”, the “polyreactivity (PSR sort gate)” value was “low polyreactivity”.

For “QVQLVESGGGLVQAGGSLRLSCAASGRTFDRYAMGWYRQAPGKERELVAAISRGGSTNYADSVKGRFTISRDNAKNTVYLQMNSLKPEDTAVYYCAARVSFLHLRRAYDYWGQGTQVTVSS”, the “polyreactivity (PSR sort gate)” value is listed as “high polyreactivity”.

In the case of “QVQLVESGGGLVQAGGSLRLSCAASGRTFDRYTMGWYRRAPGKERELVATIRSTGSTYYADSVKGRFTISRDNAKNTVYLQMNSLKTEDTAVYYCNRKYRSSLPYGDGYWGQGTQVTVSS”, the “polyreactivity (PSR sort gate)” value is on record as “low polyreactivity”.

Consider “QVQLVESGGGLVQAGGSLRLSCAASGRTFDSNAMGWYRQAPGKERELVAAISWSGGSTYYADSVKGRFTISRDNAKNTVYLQMNSLKPEDTAVYYCNRLGRHAPATRYGYWGQGTQVTVSS”, for which the “polyreactivity (PSR sort gate)” value is “high polyreactivity”.

Consider “QVQLVESGGGLVQAGGSLRLSCAASGRTFDVNAMGWYRQAPGKERELVAAITWDGGSTYYADSVKGRFTISRDNAKNTVYLQMNSLKPEDTAVYYCAADFIQGAWWYVTYRYTYEYWGQGTQVTVSS”, for which the “polyreactivity (PSR sort gate)” value was “low polyreactivity”.

For “QVQLVESGGGLVQAGGSLRLSCAASGRTFDYNAMGWYRQAPGKERELVADISNGGTTSYADSVKGRFTISRDNAKNTVYLQMNSLKPEDTAVYYCATLYDWSSFANSYWYFGWEEDYWGQGTQVTVSS”, the “polyreactivity (PSR sort gate)” value is “low polyreactivity”.

Take “QVQLVESGGGLVQAGGSLRLSCAASGRTFDYNAMGWYRQAPGKERELVARISNGDSTYADSVKGRFTISRDNAKNTVYLQMNSLKPEDTAVYYCAARQEPGWYPDVWWEYDYWGEGTQVTVSS”: the “polyreactivity (PSR sort gate)” value is on record as “low polyreactivity”.
